Among the data in article PMC2790986 are enzymatic_activity values, retold here.

The chains are these.
B1: PON2 (paraoxonase-2), Cys311 and Ser311 variants: N254Q (printed N254G) (protein)
parent chain: MGRLVAVGLLGIALALLGERLLALRNRLKASREVESVDLPHCHLIKGIEAGSEDIDILPNGLAFFSVGLKFPGLHSFAPDKPGGILMMDLKEEKPRARELRISRGFDLASFNPHGISTFIDNDDTVYLFVVNHPEFKNTVEIFKFEEAENSLLHLKTVKHELLPSVNDITAVGPAHFYATNDHYFSDPFLKYLETYLNLHWANVVYYSPNEVKVVAEGFDSANGINISPDDKYIYVADILAHEIHVLEKHTNMNLTQLKVLELDTLVDNLSIDPSSGDIWVGCHPNGQKLFVYDPNNPPSSEVLRIQNILSEKPTVTTVYANNGSVLQGSSVASVYDGKLLIGTLYHRALYCEL
B2: PON2 (paraoxonase-2), Cys311 and Ser311 variants: N254A (protein)
parent chain: B1 parent chain
B3: PON2 (paraoxonase-2), Cys311 and Ser311 variants: N254A/N323A (protein)
parent chain: B1 parent chain
B4: PON2 (paraoxonase-2), Cys311 and Ser311 variants: N323A (protein)
parent chain: B1 parent chain
B5: PON2 (paraoxonase-2), Cys311 and Ser311 variants: N323Q (protein)
parent chain: B1 parent chain

This data set is described as follows: 3OC12-HSL inactivation by CHO lysate, bioassay. To be noted: glycan lost; control: wild-type PON2 Cys311.
On to B1, for which the enzymatic_activity result is on record as “no change”. As to B2, the enzymatic_activity result was “no change”. With B3, the enzymatic_activity result is “decreases”. B4: the enzymatic_activity entry was “decreases”. For the protein B5, the enzymatic_activity result was “decreases”.
